Here are results for 33 molecules from patent publication US20150344570A1 (published 2015).

First the molecules themselves.
T1: FcγRIIa R extracellular domain with C-terminal His tag (human, UniProt P12318 34-217)
T1 construct: extracellular domain; also called FcgRIIa R; 2aR; not shown: His tag at the C terminus
T1 sequence (looked up): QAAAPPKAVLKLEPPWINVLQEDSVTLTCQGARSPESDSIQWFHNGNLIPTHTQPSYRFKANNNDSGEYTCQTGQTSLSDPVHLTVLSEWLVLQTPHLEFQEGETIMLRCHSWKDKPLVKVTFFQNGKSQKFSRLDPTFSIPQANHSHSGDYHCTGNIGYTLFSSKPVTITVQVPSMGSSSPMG

B1: GpH7-A5/GpH7-B3 variant L328_14T/GpL16-k0 (antibody, human IgG1, kappa)
heavy 1: not shown
heavy 2: not shown
light: DIVMTQSPLSLPVTPGEPASISCQASESLVHSNRNTYLHWYLQKPGQSPQLLIYKVSNRFSGVPDRFSGSGSGTDFTLKISRVEAEDVGVYYCSQNTHVPPTFGQGTKVEIERTVAAPSVFIFPPSDEQLKSGTASVVCLLNNFYPREAKVQWKVDNALQSGNSQESVTEQDSKDSTYSLSSTLTLSKADYEKHKVYACEVTHQGLSSPVTKSFNRGEC
notes: heterodimerized: alteration in one H chain only; also called He Ab L328_14T
B2: GpH7-A5/GpH7-B3 variant P238_04F/GpL16-k0 (antibody, human IgG1, kappa)
heavy 1: not shown
heavy 2: not shown
light: B1 light
notes: heterodimerized: alteration in one H chain only; also called He Ab P238_04F
B3: GpH7-A5/GpH7-B3 variant P238_03V/GpL16-k0 (antibody, human IgG1, kappa)
heavy 1: not shown
heavy 2: not shown
light: B1 light
notes: heterodimerized: alteration in one H chain only; also called He Ab P238_03V
B4: GpH7-A5/GpH7-B3 variant S239_08L/GpL16-k0 (antibody, human IgG1, kappa)
heavy 1: not shown
heavy 2: not shown
light: B1 light
notes: heterodimerized: alteration in one H chain only; also called He Ab S239_08L
B5: GpH7-A5/GpH7-B3 variant S337_06M/GpL16-k0 (antibody, human IgG1, kappa)
heavy 1: not shown
heavy 2: not shown
light: B1 light
notes: heterodimerized: alteration in one H chain only; also called He Ab S337_06M
B6: GpH7-A5/GpH7-B3 variant P331_20W/GpL16-k0 (antibody, human IgG1, kappa)
heavy 1: not shown
heavy 2: not shown
light: B1 light
notes: heterodimerized: alteration in one H chain only; also called He Ab P331_20W
B7: GpH7-A5/GpH7-B3 variant T335_02A/GpL16-k0 (antibody, human IgG1, kappa)
heavy 1: not shown
heavy 2: not shown
light: B1 light
notes: heterodimerized: alteration in one H chain only; also called He Ab T335_02A
B8: GpH7-A5/GpH7-B3 variant S267_09D/GpL16-k0 (antibody, human IgG1, kappa)
heavy 1: not shown
heavy 2: not shown
light: B1 light
notes: heterodimerized: alteration in one H chain only; also called He Ab S267_09D
B9: GpH7-A5/GpH7-B3 variant S337_19Q/GpL16-k0 (antibody, human IgG1, kappa)
heavy 1: not shown
heavy 2: not shown
light: B1 light
notes: heterodimerized: alteration in one H chain only; also called He Ab S337_19Q
B10: GpH7-A5/GpH7-B3 variant T335_05P/GpL16-k0 (antibody, human IgG1, kappa)
heavy 1: not shown
heavy 2: not shown
light: B1 light
notes: heterodimerized: alteration in one H chain only; also called He Ab T335_05P
B11: GpH7-A5/GpH7-B3 variant S337_03V/GpL16-k0 (antibody, human IgG1, kappa)
heavy 1: not shown
heavy 2: not shown
light: B1 light
notes: heterodimerized: alteration in one H chain only; also called He Ab S337_03V
B12: GpH7-A5/GpH7-B3 variant P331_04F/GpL16-k0 (antibody, human IgG1, kappa)
heavy 1: not shown
heavy 2: not shown
light: B1 light
notes: heterodimerized: alteration in one H chain only; also called He Ab P331_04F
B13: GpH7-A5/GpH7-B3 variant P331_15Y/GpL16-k0 (antibody, human IgG1, kappa)
heavy 1: not shown
heavy 2: not shown
light: B1 light
notes: heterodimerized: alteration in one H chain only; also called He Ab P331_15Y
B14: GpH7-A5/GpH7-B3 variant T335_07I/GpL16-k0 (antibody, human IgG1, kappa)
heavy 1: not shown
heavy 2: not shown
light: B1 light
notes: heterodimerized: alteration in one H chain only; also called He Ab T335_07I
B15: GpH7-A5/GpH7-B3 variant S337_15Y/GpL16-k0 (antibody, human IgG1, kappa)
heavy 1: not shown
heavy 2: not shown
light: B1 light
notes: heterodimerized: alteration in one H chain only; also called He Ab S337_15Y
B16: GpH7-A5/GpH7-B3 variant S337_18N/GpL16-k0 (antibody, human IgG1, kappa)
heavy 1: not shown
heavy 2: not shown
light: B1 light
notes: heterodimerized: alteration in one H chain only; also called He Ab S337_18N
B17: GpH7-A5/GpH7-B3 variant S267_19Q/GpL16-k0 (antibody, human IgG1, kappa)
heavy 1: not shown
heavy 2: not shown
light: B1 light
notes: heterodimerized: alteration in one H chain only; also called He Ab S267_19Q
B18: GpH7-A5/GpH7-B3 variant S298_08L/GpL16-k0 (antibody, human IgG1, kappa)
heavy 1: not shown
heavy 2: not shown
light: B1 light
notes: heterodimerized: alteration in one H chain only; also called He Ab S298_08L
B19: GpH7-A5/GpH7-B3 variant P271_08L/GpL16-k0 (antibody, human IgG1, kappa)
heavy 1: not shown
heavy 2: not shown
light: B1 light
notes: heterodimerized: alteration in one H chain only; also called He Ab P271_08L
B20: GpH7-A5/GpH7-B3 variant P331_02A/GpL16-k0 (antibody, human IgG1, kappa)
heavy 1: not shown
heavy 2: not shown
light: B1 light
notes: heterodimerized: alteration in one H chain only; also called He Ab P331_02A
B21: GpH7-A5/GpH7-B3 variant S337_16H/GpL16-k0 (antibody, human IgG1, kappa)
heavy 1: not shown
heavy 2: not shown
light: B1 light
notes: heterodimerized: alteration in one H chain only; also called He Ab S337_16H
B22: GpH7-A5/GpH7-B3 variant S337_09D/GpL16-k0 (antibody, human IgG1, kappa)
heavy 1: not shown
heavy 2: not shown
light: B1 light
notes: heterodimerized: alteration in one H chain only; also called He Ab S337_09D
B23: GpH7-A5/GpH7-B3 variant T335_13S/GpL16-k0 (antibody, human IgG1, kappa)
heavy 1: not shown
heavy 2: not shown
light: B1 light
notes: heterodimerized: alteration in one H chain only; also called He Ab T335_13S
B24: GpH7-A5/GpH7-B3 variant S267_03V/GpL16-k0 (antibody, human IgG1, kappa)
heavy 1: not shown
heavy 2: not shown
light: B1 light
notes: heterodimerized: alteration in one H chain only; also called He Ab S267_03V
B25: GpH7-A5/GpH7-B3 variant S239_18N/GpL16-k0 (antibody, human IgG1, kappa)
heavy 1: not shown
heavy 2: not shown
light: B1 light
notes: heterodimerized: alteration in one H chain only; also called He Ab S239_18N
B26: GpH7-A5/GpH7-B3 variant S324_06M/GpL16-k0 (antibody, human IgG1, kappa)
heavy 1: not shown
heavy 2: not shown
light: B1 light
notes: heterodimerized: alteration in one H chain only; also called He Ab S324_06M
B27: GpH7-A5/GpH7-B3 variant S337_10E/GpL16-k0 (antibody, human IgG1, kappa)
heavy 1: not shown
heavy 2: not shown
light: B1 light
notes: heterodimerized: alteration in one H chain only; also called He Ab S337_10E
B28: GpH7-A5/GpH7-B3 variant S239_10E/GpL16-k0 (antibody, human IgG1, kappa)
heavy 1: not shown
heavy 2: not shown
light: B1 light
notes: heterodimerized: alteration in one H chain only; also called He Ab S239_10E
B29: GpH7-A5/GpH7-B3 variant P331_16H/GpL16-k0 (antibody, human IgG1, kappa)
heavy 1: not shown
heavy 2: not shown
light: B1 light
notes: heterodimerized: alteration in one H chain only; also called He Ab P331_16H
B30: GpH7-A5/GpH7-B3 variant S337_07I/GpL16-k0 (antibody, human IgG1, kappa)
heavy 1: not shown
heavy 2: not shown
light: B1 light
notes: heterodimerized: alteration in one H chain only; also called He Ab S337_07I
B31: GpH7-A5/GpH7-B3 variant T335_10E/GpL16-k0 (antibody, human IgG1, kappa)
heavy 1: not shown
heavy 2: not shown
light: B1 light
notes: heterodimerized: alteration in one H chain only; also called He Ab T335_10E
B32: GpH7-A5/GpH7-B3 variant S267_06M/GpL16-k0 (antibody, human IgG1, kappa)
heavy 1: not shown
heavy 2: not shown
light: B1 light
notes: heterodimerized: alteration in one H chain only; also called He Ab S267_06M
B33: GpH7-A5/GpH7-B3 variant S337_20W/GpL16-k0 (antibody, human IgG1, kappa)
heavy 1: not shown
heavy 2: not shown
light: B1 light
notes: heterodimerized: alteration in one H chain only; also called He Ab S337_20W

The test has as its target T1, FcγRIIa R extracellular domain with …. Nature of the test: SPR (Biacore), relative FcγRIIa R binding, GpH7-A5/GpH7-B3/GpL16-k0 = 100.
With B1, the He/Con_2aR is 119 % of control.

As for B2, the He/Con_2aR is 174 % of control.

With B3, the He/Con_2aR is 120 % of control.

In the case of B4, the He/Con_2aR was 122 % of control.

With B5, the He/Con_2aR was 105 % of control.

Take B6: the He/Con_2aR was 110 % of control.

In the case of B7, the He/Con_2aR was 102 % of control.

Regarding B8, the He/Con_2aR was 173 % of control.

B9: the He/Con_2aR is 106 % of control.

In the case of B10, the He/Con_2aR was 104 % of control.

In the case of B11, the He/Con_2aR is 106 % of control.

For B12, the He/Con_2aR is 111 % of control.

As to B13, the He/Con_2aR was 112 % of control.

As for B14, the He/Con_2aR is 109 % of control.

On to B15, for which the He/Con_2aR is 105 % of control.

With B16, the He/Con_2aR is 107 % of control.

Consider B17, for which the He/Con_2aR was 135 % of control.

Consider B18, for which the He/Con_2aR is 105 % of control.

With B19, the He/Con_2aR was 104 % of control.

For the molecule B20, the He/Con_2aR is 106 % of control.

As for B21, the He/Con_2aR is 109 % of control.

B22: the He/Con_2aR was 115 % of control.

Regarding B23, the He/Con_2aR is 110 % of control.

For the molecule B24, the He/Con_2aR is 116 % of control.

As to B25, the He/Con_2aR was 111 % of control.

Consider B26, for which the He/Con_2aR is 123 % of control.

On to B27, for which the He/Con_2aR was 112 % of control.

As to B28, the He/Con_2aR was 135 % of control.

For the molecule B29, the He/Con_2aR was 114 % of control.

B30: the He/Con_2aR is 109 % of control.

In the case of B31, the He/Con_2aR is 111 % of control.

B32: the He/Con_2aR was 122 % of control.

As for B33, the He/Con_2aR was 110 % of control.
